In PMC7598476 (2020):

B1: MPV458 human monoclonal antibody (antibody, V domains shown)
VH: QGKLVESGGGVIQPGRSLRLSCAASGFDFSRYGLHWVRQAPGKGLEWVAVIVYAGSNKYYADSVKGRFTISKDNSKNTMHLQMSDLRTEDTAVYYCARDQAFDLWGQGTMVTVSS
VL: DIQMTQSPASLSASVGDRVTITCQASQGISRSVNWYQQKPGKAPKLLIFDASHLERGVPSRFSGSGYGTDFTFTISSLQPEDIATYYCQQYDNLRISFGQGTRLEIK
B2: MPE8 monoclonal antibody (recombinant, human IgG1) (antibody, V domains shown)
VH: EVQLVESGGGLVKPGGSLRLSCAASGFTFSSYSMNWVRQAPGKGLEWVSSISSSSSYIYYADSVKGRFTISRDNAKNSLYLQMNSLRAEDTAVYYCARARATGYNSITPYFDIWGQGTLVTVSS
VL: QSVVTQTPSVSGAPGQRVTISCTGSSSNIGAGYDVHWYQQLPGTAPKLLIYDNNNRPSGVPDRFSASKSGTSASLAITGLQAEDEADYYCQSYDRSLSGVFGTGTKVTVL
B3: MPV458 Fab (Fab, V domains shown)
VH: B1 VH
VL: B1 VL

Key:
[1] = molecular target: hMPV B2 F GCN4; experiment: ELISA
[2] = molecular target: hMPV F protein of subgroup B1 (ELISA panel) (human metapneumovirus (subgroup B1)); experiment: ELISA
[3] = molecular target: hMPV F protein of subgroup A2 (ELISA panel) (human metapneumovirus (subgroup A2)); experiment: ELISA
[4] = molecular target: post-fusion trimeric hMPV B2 F (trypsin treated) (human metapneumovirus (subgroup B2)); experiment: ELISA
[5] = molecular target: monomeric hMPV B2 F protein, treated with trypsin (human metapneumovirus (subgroup B2)); experiment: ELISA
[6] = molecular target: hMPV F protein of subgroup A1 (ELISA panel) (human metapneumovirus (subgroup A1)); experiment: ELISA
[7] = molecular target: recombinant hMPV B2 F protein (human metapneumovirus (subgroup B2)); experiment: ELISA
[8] = molecular target: biotinylated monomeric hMPV B2 F protein (human metapneumovirus (subgroup B2), biotin (site not stated)); experiment: BLI

| Binder | EC50 [1] | EC50 [2] | EC50 [3] | EC50 [4] | EC50 [5] | EC50 [6] | EC50 [7] | koff [8] |
| --- | --- | --- | --- | --- | --- | --- | --- | --- |
| B1 | 0.2 µg/mL | 0.39 µg/mL | 0.39 µg/mL | 0.13 µg/mL | 0.027 µg/mL | 0.33 µg/mL | 0.12 µg/mL |  |
| B2 | 4.7 µg/mL | 3.1 µg/mL | 4.3 µg/mL | 1.3 µg/mL | 0.63 µg/mL | 1.3 µg/mL | 2 µg/mL |  |
| B3 |  |  |  |  |  |  |  | 8.4e-05 s⁻¹ |
